Publication PMC3350781 (Current Biology, 2011)

T1: Wsp1p poly (p)-VCA (residues 129-574 including the polyproline domain and VCA) (S. pombe, UniProt O36027 129-574)
T1 sequence (looked up): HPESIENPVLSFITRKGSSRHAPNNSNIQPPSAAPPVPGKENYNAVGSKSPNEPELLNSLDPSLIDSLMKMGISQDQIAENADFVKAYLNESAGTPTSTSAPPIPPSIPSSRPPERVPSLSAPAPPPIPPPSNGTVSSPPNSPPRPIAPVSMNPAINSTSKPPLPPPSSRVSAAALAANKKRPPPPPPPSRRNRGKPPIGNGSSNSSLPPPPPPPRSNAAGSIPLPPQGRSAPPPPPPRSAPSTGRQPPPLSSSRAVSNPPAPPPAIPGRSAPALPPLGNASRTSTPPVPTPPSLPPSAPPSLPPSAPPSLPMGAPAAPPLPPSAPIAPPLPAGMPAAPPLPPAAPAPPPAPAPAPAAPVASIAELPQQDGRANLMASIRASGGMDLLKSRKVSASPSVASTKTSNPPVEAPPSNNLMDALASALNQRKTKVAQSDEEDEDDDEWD


Molecular target: T1, Wsp1p poly (p)-VCA (residues 129-574 …)
Test: pull-down

Kd | Binder
~100 nM | GST-Bzz1pSH3SH3 (residues 521-642) (domain or fragment, S. pombe, UniProt Q09746 521-642, looked up) VVLYDFTGEHEGVITASEGQEFTLLEPDDGSGWVRVKIDGTDGLIPASYVKLNDELNTSVTLDGDSSYVKALYAYTAQSDMELSIQEGDIIQVTNRNAGNGWSEGILNGVTGQFPANYVTDV
~2000 nM | GST-Bzz1pSH3 (residues 586-642) (domain or fragment, S. pombe, UniProt Q09746 586-642, looked up) SSYVKALYAYTAQSDMELSIQEGDIIQVTNRNAGNGWSEGILNGVTGQFPANYVTDV
